From the supplement of paper PMC10567573

B1: NECAB1 (parent)
chain: NLDTEELCEYFSQHLGEYENVLAA

Variants of: B1
Assay: protein stability index of a GFP-peptide fusion (GPS, HEK-293T) (PSI 1-6); higher = more stable
Details: c terminus: a fixed tail appended
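Note: lentivirally expressed fusions sorted by FACS into six bins by GFP to DsRed ratio, PSI derived from sequencing read proportions per bin multiplied by bin number.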

In order of falling protein stability index:
1. NLDTEELCEYESQHLGEYENVLAA  5.25
2. NLDTEELCEYRSQHLGEYENVLAA  5.19
3. NLDTEELCEYPSQHLGEYENVLAA  5.13
4. NLDTEELCESFSQHLGEYENVLAA  5.13
5. NLDTEELCEYKSQHLGEYENVLAA  5.08
6. NLDTEELCEYNSQHLGEYENVLAA  5.01
7. NLDTEELCEDFSQHLGEYENVLAA  4.99
8. NEDTEELCEYFSQHLGEYENVLAA  4.97
9. NLDTEEDCEYFSQHLGEYENVLAA  4.92
10. NLDTEELCEYDSQHLGEYENVLAA  4.87
11. NLDTEEGCEYFSQHLGEYENVLAA  4.79
12. NLDTEEECEYFSQHLGEYENVLAA  4.77
13. NDDTEELCEYFSQHLGEYENVLAA  4.72
14. NLDTEEKCEYFSQHLGEYENVLAA  4.7
15. NLDTEELCEEFSQHLGEYENVLAA  4.69
16. NLDTEELCEQFSQHLGEYENVLAA  4.67
17. NLDTEELCEYSSQHLGEYENVLAA  4.65
18. NLDTEENCEYFSQHLGEYENVLAA  4.63
19. NLDTEEHCEYFSQHLGEYENVLAA  4.63
20. NLDTEEVCEYFSQHLGEYENVLAA  4.59
21. NLDTEELCETFSQHLGEYENVLAA  4.59
22. NLDTEELCENFSQHLGEYENVLAA  4.58
23. NLDTEELGEYFSQHLGEYENVLAA  4.56
24. NLDTEELCEYGSQHLGEYENVLAA  4.55
25. NLDTEESCEYFSQHLGEYENVLAA  4.53
26. NLDTEERCEYFSQHLGEYENVLAA  4.49
27. NLDTEELCEPFSQHLGEYENVLAA  4.47
28. NLDTEELCECFSQHLGEYENVLAA  4.46
29. NLDTEELCEYQSQHLGEYENVLAA  4.44
30. NLDTEELPEYFSQHLGEYENVLAA  4.44
31. NLDTEELCEGFSQHLGEYENVLAA  4.44
32. NLDTEEACEYFSQHLGEYENVLAA  4.43
33. NLDTEETCEYFSQHLGEYENVLAA  4.42
34. NLDTEELDEYFSQHLGEYENVLAA  4.39
35. NLDTEELEEYFSQHLGEYENVLAA  4.36
36. NLDTEELCEKFSQHLGEYENVLAA  4.33
37. NLDDEELCEYFSQHLGEYENVLAA  4.33
38. NLDTEEPCEYFSQHLGEYENVLAA  4.29
39. NLDTEELCEYHSQHLGEYENVLAA  4.26
40. NLDTEEMCEYFSQHLGEYENVLAA  4.26
41. NLDHEELCEYFSQHLGEYENVLAA  4.26
42. NLDTEELCEAFSQHLGEYENVLAA  4.25
43. NLDTEELCEVFSQHLGEYENVLAA  4.24
44. NLDTEELCEYASQHLGEYENVLAA  4.18
45. NLDTEELNEYFSQHLGEYENVLAA  4.18
46. NLDTEELCEMFSQHLGEYENVLAA  4.18
47. NLDEEELCEYFSQHLGEYENVLAA  4.15
48. NLDTEEQCEYFSQHLGEYENVLAA  4.13
49. NQDTEELCEYFSQHLGEYENVLAA  4.12
50. NLDTEELCEHFSQHLGEYENVLAA  4.12
51. NSDTEELCEYFSQHLGEYENVLAA  4.11
52. NLDTEELCELFSQHLGEYENVLAA  4.08
53. NLDTEELCERFSQHLGEYENVLAA  4.08
54. NLDTEELHEYFSQHLGEYENVLAA  4.07
55. NLDTEELCEYCSQHLGEYENVLAA  4.03
56. NRDTEELCEYFSQHLGEYENVLAA  4
57. NLDTEELCPYFSQHLGEYENVLAA  3.97
58. NLDTEELCEIFSQHLGEYENVLAA  3.97
59. NLDTEEYCEYFSQHLGEYENVLAA  3.94
60. NLDGEELCEYFSQHLGEYENVLAA  3.91
61. NKDTEELCEYFSQHLGEYENVLAA  3.9
62. NLDTEELKEYFSQHLGEYENVLAA  3.9
63. NGDTEELCEYFSQHLGEYENVLAA  3.85
64. NLDTEEWCEYFSQHLGEYENVLAA  3.85
65. NLDTEECCEYFSQHLGEYENVLAA  3.85
66. NLDTEELSEYFSQHLGEYENVLAA  3.83
67. NLDTEPLCEYFSQHLGEYENVLAA  3.82
68. NNDTEELCEYFSQHLGEYENVLAA  3.72
69. NLDTEELTEYFSQHLGEYENVLAA  3.62
70. NLDNEELCEYFSQHLGEYENVLAA  3.62
71. NLDTEELCEYISQHLGEYENVLAA  3.59
72. NLDQEELCEYFSQHLGEYENVLAA  3.59
73. NLDPEELCEYFSQHLGEYENVLAA  3.56
74. NLDTEEFCEYFSQHLGEYENVLAA  3.55
75. NHDTEELCEYFSQHLGEYENVLAA  3.52
76. NTDTEELCEYFSQHLGEYENVLAA  3.52
77. NLDTEELQEYFSQHLGEYENVLAA  3.52
78. NLDTEELCEYMSQHLGEYENVLAA  3.48
79. NMDTEELCEYFSQHLGEYENVLAA  3.46
80. NLDTEELYEYFSQHLGEYENVLAA  3.46
81. NLDTEELMEYFSQHLGEYENVLAA  3.41
82. NLDSEELCEYFSQHLGEYENVLAA  3.32
83. NLDTEELWEYFSQHLGEYENVLAA  3.28
84. NLDTEELFEYFSQHLGEYENVLAA  3.26
85. NLETEELCEYFSQHLGEYENVLAA  3.24
86. NLDTEELREYFSQHLGEYENVLAA  3.17
87. NLDTEELCEFFSQHLGEYENVLAA  3.17
88. NLDTEELCDYFSQHLGEYENVLAA  3.15
89. NLPTEELCEYFSQHLGEYENVLAA  3.14
90. NLDTPELCEYFSQHLGEYENVLAA  3.13
91. NFDTEELCEYFSQHLGEYENVLAA  3.05
92. NLDREELCEYFSQHLGEYENVLAA  3.05
93. NLDTEELVEYFSQHLGEYENVLAA  3.04
94. NLDTDELCEYFSQHLGEYENVLAA  3.04
95. NLDTEEICEYFSQHLGEYENVLAA  3.01
96. NADTEELCEYFSQHLGEYENVLAA  2.99
97. NLDTEELAEYFSQHLGEYENVLAA  2.98
98. NLDTEELCGYFSQHLGEYENVLAA  2.97
99. NLDYEELCEYFSQHLGEYENVLAA  2.97
100. NLDTEELLEYFSQHLGEYENVLAA  2.86
101. NYDTEELCEYFSQHLGEYENVLAA  2.78
102. NLDAEELCEYFSQHLGEYENVLAA  2.75
103. NLDKEELCEYFSQHLGEYENVLAA  2.69
104. NLDTECLCEYFSQHLGEYENVLAA  2.68
105. NLDMEELCEYFSQHLGEYENVLAA  2.66
106. NLDCEELCEYFSQHLGEYENVLAA  2.64
107. NLDWEELCEYFSQHLGEYENVLAA  2.63
108. NLTTEELCEYFSQHLGEYENVLAA  2.57
109. NLDTEELCCYFSQHLGEYENVLAA  2.55
110. NLSTEELCEYFSQHLGEYENVLAA  2.55
111. NLDTEDLCEYFSQHLGEYENVLAA  2.53
112. NLDTEELIEYFSQHLGEYENVLAA  2.52
113. NLDTEELCIYFSQHLGEYENVLAA  2.47
114. NLDTEYLCEYFSQHLGEYENVLAA  2.46
115. NLDTENLCEYFSQHLGEYENVLAA  2.42
116. NLDTEFLCEYFSQHLGEYENVLAA  2.41
117. NLDIEELCEYFSQHLGEYENVLAA  2.41
118. NLDTNELCEYFSQHLGEYENVLAA  2.4
119. NLDTTELCEYFSQHLGEYENVLAA  2.4
120. NLDTEELCHYFSQHLGEYENVLAA  2.38
121. NLDTEVLCEYFSQHLGEYENVLAA  2.38
122. NLFTEELCEYFSQHLGEYENVLAA  2.36
123. NLDTETLCEYFSQHLGEYENVLAA  2.34
124. NLDFEELCEYFSQHLGEYENVLAA  2.32
125. NLDTEELCTYFSQHLGEYENVLAA  2.3
126. NLDTEALCEYFSQHLGEYENVLAA  2.27
127. NLDTEELCKYFSQHLGEYENVLAA  2.25
128. NCDTEELCEYFSQHLGEYENVLAA  2.25
129. NLATEELCEYFSQHLGEYENVLAA  2.25
130. NIDTEELCEYFSQHLGEYENVLAA  2.23
131. NLDTEWLCEYFSQHLGEYENVLAA  2.23
132. NLDTEELCEWFSQHLGEYENVLAA  2.22
133. NLDTEELCNYFSQHLGEYENVLAA  2.21
134. NWDTEELCEYFSQHLGEYENVLAA  2.21
135. NLDLEELCEYFSQHLGEYENVLAA  2.15
136. NLDTEILCEYFSQHLGEYENVLAA  2.13
137. NLDTRELCEYFSQHLGEYENVLAA  2.13
138. NLWTEELCEYFSQHLGEYENVLAA  2.12
139. NLCTEELCEYFSQHLGEYENVLAA  2.12
140. NLDVEELCEYFSQHLGEYENVLAA  2.12
141. NLHTEELCEYFSQHLGEYENVLAA  2.11
142. NLDTHELCEYFSQHLGEYENVLAA  2.1
143. NLDTVELCEYFSQHLGEYENVLAA  2.1
144. NLDTEKLCEYFSQHLGEYENVLAA  2.08
145. NLDTEELCQYFSQHLGEYENVLAA  2.05
146. NLDTEELCSYFSQHLGEYENVLAA  2.04
147. NLLTEELCEYFSQHLGEYENVLAA  2.01
148. NLDTEELCEYLSQHLGEYENVLAA  2
149. NLDTEHLCEYFSQHLGEYENVLAA  2
150. NLDTEELCAYFSQHLGEYENVLAA  1.99
151. NLDTGELCEYFSQHLGEYENVLAA  1.99
152. NLDTIELCEYFSQHLGEYENVLAA  1.99
153. NLDTWELCEYFSQHLGEYENVLAA  1.98
154. NLDTEELCRYFSQHLGEYENVLAA  1.97
155. NLDTQELCEYFSQHLGEYENVLAA  1.97
156. NLYTEELCEYFSQHLGEYENVLAA  1.94
157. NLQTEELCEYFSQHLGEYENVLAA  1.94
158. NLDTKELCEYFSQHLGEYENVLAA  1.94
159. NLDTEELCVYFSQHLGEYENVLAA  1.93
160. NLDTSELCEYFSQHLGEYENVLAA  1.93
161. NLDTESLCEYFSQHLGEYENVLAA  1.92
162. NLDTCELCEYFSQHLGEYENVLAA  1.92
163. NLDTEELCLYFSQHLGEYENVLAA  1.91
164. NLDTEELCMYFSQHLGEYENVLAA  1.9
165. NLDTLELCEYFSQHLGEYENVLAA  1.89
166. NLMTEELCEYFSQHLGEYENVLAA  1.88
167. NLKTEELCEYFSQHLGEYENVLAA  1.86
168. YLDTEELCEYFSQHLGEYENVLAA  1.83
169. NLDTEGLCEYFSQHLGEYENVLAA  1.81
170. NLDTEELCFYFSQHLGEYENVLAA  1.8
171. NPDTEELCEYFSQHLGEYENVLAA  1.8
172. NLDTERLCEYFSQHLGEYENVLAA  1.8
173. NVDTEELCEYFSQHLGEYENVLAA  1.79
174. NLDTEELCWYFSQHLGEYENVLAA  1.77
175. NLDTEELCYYFSQHLGEYENVLAA  1.76
176. NLDTELLCEYFSQHLGEYENVLAA  1.74
177. NLDTEMLCEYFSQHLGEYENVLAA  1.71
178. WLDTEELCEYFSQHLGEYENVLAA  1.71
179. NLDTYELCEYFSQHLGEYENVLAA  1.69
180. NLNTEELCEYFSQHLGEYENVLAA  1.64
181. NLDTEQLCEYFSQHLGEYENVLAA  1.64
182. NLDTMELCEYFSQHLGEYENVLAA  1.63
183. NLRTEELCEYFSQHLGEYENVLAA  1.59
184. NLDTAELCEYFSQHLGEYENVLAA  1.56
185. NLVTEELCEYFSQHLGEYENVLAA  1.53
186. NLGTEELCEYFSQHLGEYENVLAA  1.48
187. NLDTFELCEYFSQHLGEYENVLAA  1.47
188. NLITEELCEYFSQHLGEYENVLAA  1.41
